In publication PMC7480107:

Biological target: F-actin (rabbit muscle actin, polymerized) (rabbit) (UniProt P68135)
Assay: co-sedimentation

percent of the protein in the pellet with F-actin [%] | Substance
84 | Pav-HEAD (1-500 aa) (domain or fragment)
87 | Pav^DEAD-HEAD (1-500 aa with G131E mutation) (domain or fragment)
